The assay addresses T1, pY14–Cav-1–mRFP (Cav-1–monomeric red fluorescent protein phosphorylated at Tyr-14) (canine, UniProt P33724 1-178, phosphotyrosine at 14).
T1 sequence (looked up): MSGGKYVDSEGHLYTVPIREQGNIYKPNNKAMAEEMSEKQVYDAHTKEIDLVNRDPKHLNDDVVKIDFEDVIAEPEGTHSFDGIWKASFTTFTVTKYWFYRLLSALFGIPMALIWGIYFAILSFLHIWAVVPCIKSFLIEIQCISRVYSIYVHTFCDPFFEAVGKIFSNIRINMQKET
In words: far-Western.

B1: GST fused to the Src SH2 domain (domain or fragment, chicken, UniProt P00523 148-251, looked up)
chain: WYFGKITRRESERLLLNPENPRGTFLVRESETTKGAYCLSVSDFDNAKGLNVKHYKIRKLDSGGFYITSRTQFSSLQQLVAYYSKHADGLCHRLTNVCPTSKPQ
With B1, the binding result is “binds”.
